Measurements reported in PMC2676118.
Like-named read-outs stand apart in the source and are kept apart here.

What was measured:
Test in all cases: AUC
[1] = molecular target: FGF9^Eks, purified recombinant FGF9 with the Eks mutation N143T (UniProt P54130)
[2] = molecular target: FGF9^WT, purified recombinant wild type FGF9 (UniProt P54130)
[3] = molecular target: FGF9^WT, purified recombinant wild type FGF9 (UniProt P54130); remark: listed apart in the source

Row | Ka [1] [M⁻¹] | stoichiometry N [1] | stoichiometry N [2] | Ka [3] [M⁻¹] | stoichiometry N [3] | Substance
1 | 119000 | 2 | – | – | – | FGF9^Eks, purified recombinant FGF9 with the Eks mutation N143T (from UniProt P54130 4-208) (natural protein)
2 | – | – | 2 | 1.04e+07 | 2 | FGF9^WT, purified recombinant wild type FGF9 (from UniProt P54130 4-208) (natural protein)
